The results in this text go back to PMC2757915, “The Elongator Complex Interacts with PCNA and Modulates Transcriptional Silencing and Sensitivity to DNA Damage Agents” (PLoS Genetics, 2009).

This test has as its target T1, Elongator complex purified from yeast cells using Elp5-TAP (S. cerevisiae (endogenous in W303 yeast …, UniProt Q06706 1-1349; P42935 1-788; Q02908 1-557; Q02884 1-456; P38874 1-309; Q04868 …).
T1 construct: Elp1, S. cerevisiae; Elp2, S. cerevisiae; Elp3 (Kat9), S. cerevisiae; Elp4, S. cerevisiae; Elp5, S. cerevisiae; Elp6, S. cerevisiae; Six-subunit complex; also called Elp3 complex; Elp1-Elp6 complex; copies: + + + + +
Nature of the test: co-IP; in vitro: 2.5 µg recombinant PCNA incubated with different amounts of Elp3 complex (purified with Elp5-TAP) in TBS with 0.01% NP-40 at 4°C for 2 hrs; precipitated with polyclonal anti-PCNA antibodies and Protein G Sepharose; Western blot for PCNA and CBP; pre-bleed sera as negative control. The following applies: both partners purified. In general terms: Immunoblotting shows a protein as a band on a membrane.

B1: recombinant PCNA (natural protein, S. cerevisiae, UniProt P15873 1-258, looked up)
chain: MLEAKFEEASLFKRIIDGFKDCVQLVNFQCKEDGIIAQAVDDSRVLLVSLEIGVEAFQEYRCDHPVTLGMDLTSLSKILRCGNNTDTLTLIADNTPDSIILLFEDTKKDRIAEYSLKLMDIDADFLKIEELQYDSTLSLPSSEFSKIVRDLSQLSDSINIMITKETIKFVADGDIGSGSVIIKPFVDMEHPETSIKLEMDQPVDLTFGAKYLLDIIKGSSLSDRVGIRLSSEAPALFQFDLKSGFLQFFLAPKFNDEE
notes: PCNA, encoded by POL30, S. cerevisiae; expressed from a plasmid in E. coli; No tag is named; purified by conventional chromatography; source: E. coli BL21(DE3), purified (Q-Sepharose, hydroxyapatite, Superdex 200)
With B1, the binding result was “binds”.
